In the supplement of paper PMC10724198 one finds protein stability index data, which are given here for 116 sequences.

± gives the standard deviation of the averaged measurements.
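Also: PSI is a weighted mean of sequencing reads over stability bins, variants kept only with over 10 reads, mCherry proximal and sfGFP distal, peptide attached via GGGS linker.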

The test system of the data set is Saccharomyces cerevisiae. As to the kind of experiment: protein stability index of tFT-peptide fusion (C-terminal peptide) (PSI (0-1 scale)); higher = more stable (slower turnover). To be noted: genetic background: wild type; temperature: 30 C.
In the case of ILKKLNQEINKE, the protein stability index is 0.698 ± 0.028. ILLSETEMIDAD registered a protein stability index of 0.683 ± 0.022.

ILPPCVNIGSGV: the protein stability index came out at 0.64 ± 0.043. With ILQGENKEGINT the figure was 0.668 ± 0.035.

For ILSRAGMITHCR, the protein stability index came out at 0.642 ± 0.019.

In the case of ILTAVFAVPILP, the protein stability index turned out to be 0.57 ± 0.04. With INIQKKKKIQHI the figure was 0.508 ± 0.031; with INKKKKKKSKQK, 0.7 ± 0.089. The sequence INKLRLNKKKSF showed a protein stability index of 0.659 ± 0.008. With INRGGLVRGFGS the figure was 0.725 ± 0.17; with INSEKKKDRNKL, 0.779 ± 0.02; with INTNASSWRICK, 0.7379 ± 0.0049. With INVCVLSSSTAS the figure was 0.684 ± 0.079. Sequence IPCLPHPSLPPQ showed a protein stability index of 0.757 ± 0.039. With IPFPSFPASLYR the figure was 0.694 ± 0.021; with IPGDTLSTTTVT, 0.67 ± 0.05. With IPLGGPTPSNYD the figure was 0.721 ± 0.025; with IPSHSVLCLSIY, 0.497 ± 0.042. IQHWGIRRRITY came in with a protein stability index of 0.728 ± 0.066. With IQKIKYKRKYIK the figure was 0.73 ± 0.027; with IQLPPPYATPPS, 0.645 ± 0.012; with IQSRDDTVEGRK, 0.63 ± 0.0095.

As for IRAKKLNKSNNK, the protein stability index turned out to be 0.7028 ± 0.0053. With IREQQKNQNHKE the figure was 0.642 ± 0.051; with IRGAARRRTQGY, 0.731 ± 0.038; with IRGGGGLGGGGV, 0.703 ± 0.023.

As for IRGIKSRKFTSV, the protein stability index was 0.753 ± 0.0079.

The sequence IRGYSVKRIRED returned a protein stability index of 0.683 ± 0.045. Turning to IRHSTRTRPSSV, the protein stability index came out at 0.745 ± 0.03.

For the sequence IRNACRINESQC, the protein stability index was determined as 0.698 ± 0.017. For IRPFSPAPPRYP, the protein stability index was 0.722 ± 0.075. With IRPPPPPPPRAA, the protein stability index was found to be 0.59 ± 0.07. IRRSVVRCLFTE yielded a protein stability index of 0.707 ± 0.056. With IRTITSVQTFPE the figure was 0.673 ± 0.029. With ISCFRLGFVRKI the figure was 0.535 ± 0.0058.

Consider ISCGERSRGGGK, for which the protein stability index came out at 0.6122 ± 0.0029. With ISEGKTIIYCLW the figure was 0.523 ± 0.081; with ISEGNNQNLSQT, 0.689 ± 0.011. With ISEGSSRFRTSL the figure was 0.6542 ± 0.0025; with ISFVFSDSLFPI, 0.785 ± 0.012; with ISGIKNKKKKGT, 0.684 ± 0.066. With ISHPTPQSVPAI the figure was 0.612 ± 0.0063. Consider ISLGVDFSFCSL, for which the protein stability index came to 0.7014 ± 0.0042. With ISLTSYVCGRVL the figure was 0.648 ± 0.014. With ISLWALSQLPVP the figure was 0.79 ± 0.19; with ISPGWLSRLWVR, 0.629 ± 0.0083; with ISPRLGLPLAPL, 0.732 ± 0.067. ISPTTFSTHDRC returned a protein stability index of 0.665 ± 0.077. With ISQAIMTNPIKE the figure was 0.598 ± 0.14.

Take ISVPMPSFGPLP: the protein stability index worked out at 0.6938 ± 0.002. With ISVPPFPAPPPP the figure was 0.745 ± 0.13; with ISYLSILTSCPW, 0.65423 ± 0.00026.

The sequence ISYQVDIIKGKI registered a protein stability index of 0.6781 ± 0.00071. With ITFTCRHQGKKK the figure was 0.759 ± 0.095. With ITRVGSLENSQV the figure was 0.635 ± 0.013; with ITSSPNVGKTTN, 0.713 ± 0.024; with ITSWCNVFLGRA, 0.71 ± 0.018.

For the sequence IVADKSPLSSPP, the protein stability index was determined as 0.6947 ± 0.0017. With IVENSLEEKERR the figure was 0.673 ± 0.056. IVGIEGYNEIKT displayed a protein stability index of 0.803 ± 0.27. With IVKFVRAIGRKK the figure was 0.664 ± 0.028; with IVPPPHRHRRSI, 0.824 ± 0.064. With IVSNLILSKRCN the figure was 0.652 ± 0.064; with IVTLPTNPYTPV, 0.717 ± 0.046.

IVTQGCLFFLVR: the protein stability index turned out to be 0.687 ± 0.038. With IWTSFKRRRWNF the figure was 0.532 ± 0.033. With IWVGNEENEEII the figure was 0.669 ± 0.082; with IYSWSAALFHCR, 0.75 ± 0.1.

In turn, IYVWALSPVTLP came in with a protein stability index of 0.628 ± 0.019. On to KAGCDYYHRRSF, for which the protein stability index is 0.675 ± 0.061.

KAGDRRPDNHSN returned a protein stability index of 0.66 ± 0.064. Turning to KANIKGIKTRIT, the protein stability index was 0.642 ± 0.076. With KARNIVESGKTQ the figure was 0.722 ± 0.038; with KASAASLFILMS, 0.611 ± 0.012; with KASEALGYTSNE, 0.675 ± 0.037.

KATNLNKVRRWE showed a protein stability index of 0.693 ± 0.048. With KCCRVTCCGGLR the figure was 0.65 ± 0.028. With KCLALSAGWIAT the figure was 0.627 ± 0.033; with KCRGRGRQEAFE, 0.6643 ± 0.0018; with KCVDSREKITMD, 0.672 ± 0.072. With KDGGRLRVDQWI the figure was 0.706 ± 0.076; with KDKKERTTEKKT, 0.693 ± 0.13. With KDLFDLYLKRLL, the protein stability index turned out to be 0.65 ± 0.0098. With KDVYEKHLNKQT the figure was 0.722 ± 0.1; with KEDGEIIDRYVL, 0.616 ± 0.074; with KEEKLKNKITKY, 0.679 ± 0.011.

In the case of KEEKRMKLKKLQ, the protein stability index stood at 0.537 ± 0.082. With KEEYSYQRVGEL the figure was 0.661 ± 0.015; with KEGDMWRVSTLD, 0.682 ± 0.016; with KELGGSSEITEI, 0.658 ± 0.072.

For the sequence KELIGITYKNSS, the protein stability index stood at 0.6766 ± 0.0058.

KEMRCRKKKEGK displayed a protein stability index of 0.683 ± 0.048. The sequence KEQNKKQKAKDL came in with a protein stability index of 0.719 ± 0.1. With KEQYFKGSKKPI the figure was 0.651 ± 0.029; with KERKNKKINRKF, 0.686 ± 0.093; with KEVDGRALVAEE, 0.655 ± 0.035. KEVNEDIDKAKS came in with a protein stability index of 0.782 ± 0.18. With KEWGGEGRDAWG the figure was 0.6834 ± 0.0061. Sequence KEYKKKKKKIDK came in with a protein stability index of 0.671 ± 0.022. With KFIVQNENSGQC the figure was 0.677 ± 0.041; with KFKVLKVLEVRL, 0.6453 ± 0.0019. With KFLQRTPGHSSE the figure was 0.699 ± 0.048; with KGDCGGRGCGRH, 0.682 ± 0.0076; with KGKKTKQKRAKK, 0.6521 ± 0.0064. With KGKNTEKEEEEK the figure was 0.685 ± 0.019. Sequence KGQPTTRVKEEW gave a protein stability index of 0.654 ± 0.0091. With KGRAERKKDKKR the figure was 0.684 ± 0.025; with KGRAGTDVPLAR, 0.712 ± 0.052.

As to KGRQVDQALVRG, the protein stability index was 0.634 ± 0.019.

Turning to KGTRKPSTKIIV, the protein stability index turned out to be 0.667 ± 0.074. With KGWGDGPGSYVN the figure was 0.68 ± 0.035; with KGYEGGRRCELE, 0.696 ± 0.039; with KHCFDIEILRYQ, 0.664 ± 0.016. With KHFLFSVVHFSG the figure was 0.696 ± 0.028; with KHSTTSRCVWYT, 0.627 ± 0.13; with KIDEQNKNKMGM, 0.615 ± 0.082.
